{"source": "patent US11590205B2", "about": "“Methods for producing stable therapeutic glucagon formulations in aprotic polar solvents” (Xeris Pharmaceuticals, Inc., priority 2015, dated 2023)", "origin": "cited, not measured here", "settings": "aqueous", "data": [{"substance": "glucagon", "values": [{"measurement": "solubility at neutral pH", "result": "essentially insoluble"}]}]}
